The values that follow come from patent US20110118131A1 (published 2011).

The labels stand for the following.
B1: XPA23 Fab, heavy chain V50Y (Fab, V domains shown)
VH: EVQLLESGGGLVQPGGSLRLSCAASGFTFSKYFMFWVRQAPGKGLEWVSYISPSGGMTRYADSVKGRFTISRDNSKNTLYLQMNSLRAEDTAVYYCARVGYGGNSDYWGQGTLVTVSS
VL: DIQMTQSPSSVSASVGDRLTIICRASQDINRWLAWYQQTPGNAPKLLIHSATSLQSGVPSRFSGSGSGTDFTLTINSLQPEDFATYYCQQADSFPLTFGGGTKVEIK
B2: XPA23 Fab, heavy chain Y107E (Fab, V domains shown)
VH: B1 VH with Y50V, Y107E
VL: B1 VL
B3: XPA23 Fab, heavy chain Y32D (Fab, V domains shown)
VH: B1 VH with Y32D, Y50V
VL: B1 VL
B4: XPA23 Fab, heavy chain Y32S (Fab, V domains shown)
VH: B1 VH with Y32S, Y50V
VL: B1 VL
B5: XPA23 Fab, heavy chain Y107K (Fab, V domains shown)
VH: B1 VH with Y50V, Y107K
VL: B1 VL
B6: XPA23 Fab, heavy chain Y107R (Fab, V domains shown)
VH: B1 VH with Y50V, Y107R
VL: B1 VL
B7: XPA23 Fab, heavy chain Y101W (Fab, V domains shown)
VH: B1 VH with Y50V, Y101W
VL: B1 VL
B8: XPA23 Fab, heavy chain Y107N (Fab, V domains shown)
VH: B1 VH with Y50V, Y107N
VL: B1 VL
B9: XPA23 Fab, heavy chain Y32E (Fab, V domains shown)
VH: B1 VH with Y32E, Y50V
VL: B1 VL
B10: XPA23 Fab, heavy chain V99N (Fab, V domains shown)
VH: B1 VH with Y50V, V99N
VL: B1 VL
B11: XPA23 Fab, heavy chain V99K (Fab, V domains shown)
VH: B1 VH with Y50V, V99K
VL: B1 VL
B12: XPA23 Fab, heavy chain Y107H (Fab, V domains shown)
VH: B1 VH with Y50V, Y107H
VL: B1 VL
B13: XPA23 Fab, heavy chain Y101E (Fab, V domains shown)
VH: B1 VH with Y50V, Y101E
VL: B1 VL
B14: XPA23 Fab, heavy chain V99E (Fab, V domains shown)
VH: B1 VH with Y50V, V99E
VL: B1 VL
B15: XPA23 Fab, heavy chain Y107F (Fab, V domains shown)
VH: B1 VH with Y50V, Y107F
VL: B1 VL
B16: XPA23 Fab, heavy chain Y101R (Fab, V domains shown)
VH: B1 VH with Y50V, Y101R
VL: B1 VL
B17: XPA23 Fab, heavy chain Y32Q (Fab, V domains shown)
VH: B1 VH with Y32Q, Y50V
VL: B1 VL
B18: XPA23 Fab, heavy chain Y107D (Fab, V domains shown)
VH: B1 VH with Y50V, Y107D
VL: B1 VL
B19: XPA23 Fab, heavy chain V99S (Fab, V domains shown)
VH: B1 VH with Y50V, V99S
VL: B1 VL
B20: XPA23 Fab, heavy chain V99F (Fab, V domains shown)
VH: B1 VH with Y50V, V99F
VL: B1 VL
B21: XPA23 Fab, heavy chain Y101N (Fab, V domains shown)
VH: B1 VH with Y50V, Y101N
VL: B1 VL
B22: XPA23 Fab, heavy chain Y107Q (Fab, V domains shown)
VH: B1 VH with Y50V, Y107Q
VL: B1 VL
B23: XPA23 Fab, heavy chain Y32N (Fab, V domains shown)
VH: B1 VH with Y32N, Y50V
VL: B1 VL
B24: XPA23 Fab, heavy chain Y32H (Fab, V domains shown)
VH: B1 VH with Y32H, Y50V
VL: B1 VL
B25: XPA23 Fab, heavy chain Y101F (Fab, V domains shown)
VH: B1 VH with Y50V, Y101F
VL: B1 VL
B26: XPA23 Fab, heavy chain Y101H (Fab, V domains shown)
VH: B1 VH with Y50V, Y101H
VL: B1 VL
B27: XPA23 Fab, heavy chain Y101D (Fab, V domains shown)
VH: B1 VH with Y50V, Y101D
VL: B1 VL
B28: XPA23 Fab, heavy chain Y101Q (Fab, V domains shown)
VH: B1 VH with Y50V, Y101Q
VL: B1 VL
B29: XPA23 Fab, heavy chain Y32F (Fab, V domains shown)
VH: B1 VH with Y32F, Y50V
VL: B1 VL
B30: XPA23 Fab, heavy chain V99Q (Fab, V domains shown)
VH: B1 VH with Y50V, V99Q
VL: B1 VL

Positions count from the first letter of the chain named. Numbers in names are those of the source.

In this assay the target is T1, IL-1beta (UniProt P01584 117-269).
T1 construct: also called IL-1β
Put plainly: Biacore.
In the case of B1, the binding result was “no binding”. As to B2, the “fold difference in affinity vs parental” value was determined as 0.9 fold. Same read-out and setting: as for B3, the figure is 0.68 fold; as for B4, 1.33 fold. Turning to B5, the “fold difference in affinity vs parental” value came out at 0.82 fold. Still for that read-out and setting: with B6 the figure was 0.85 fold; with B7, 0.81 fold. Regarding B8, the binding result is on record as “no binding”.

For B9, the “fold difference in affinity vs parental” value amounted to 0.12 fold.

Take B10: the binding result is on record as “no binding”. Consider B11, for which the binding result is recorded as “no binding”.

B12: the binding result is given as “no binding”. Regarding B13, the “fold difference in affinity vs parental” value stood at 0.03 fold. For B14, the binding result is on record as “no binding”.

As for B15, the “fold difference in affinity vs parental” value was 0.9 fold.

Regarding B16, the “fold difference in affinity vs parental” value was 0.85 fold. Turning to B17, the binding result is “no binding”. For the molecule B18, the “fold difference in affinity vs parental” value was 0.85 fold.

Consider B19, for which the binding result is on record as “no binding”. Consider B20, for which the “fold difference in affinity vs parental” value worked out at 0.03 fold.

As for B21, the “fold difference in affinity vs parental” value worked out at 0.06 fold.

On to B22, for which the “fold difference in affinity vs parental” value is 0.87 fold. Same read-out and setting: with B23 the figure was 0.04 fold. B24: the “fold difference in affinity vs parental” value worked out at 0.62 fold.

As to B25, the “fold difference in affinity vs parental” value was 0.85 fold.

For B26, the “fold difference in affinity vs parental” value came to 0.04 fold. Consider B27, for which the binding result was “no binding”. In the case of B28, the “fold difference in affinity vs parental” value was 0.06 fold. Still for that read-out and setting: with B29 the figure was 0.75 fold. As to B30, the binding result is on record as “no binding”.
